Measurements published in article PMC4514675, “Novel Apo E-Derived ABCA1 Agonist Peptide (CS-6253) Promotes Reverse Cholesterol Transport and Induces Formation of preβ-1 HDL In Vitro” (PLoS ONE, 2015).
“And” between values parts separate entries of the source, which are not always exact repeats. Equal values may be shown once. Read-outs that look alike come from different tables or passages of the source.

What was measured:
[1] = system: BHK cells expressing ABCA1; assay: Nascent HDL particle formation, 2D-PAGGE; format: cell-based, hamster; conditions: 0.96 μM
Experimental: Apo A-I and CS-6253-containing particles were separated according to charge (agarose, horizontal axis) and size (polyacrylamide gradient, 3% to 20% gel, vertical axis) as previously described. Apo A-I-containing particles were detected by incubating the membranes with immunopurified polyclonal anti-apo A-I antibody (Biodesign). The nHDL-CS-6253 containing particles were detected with immunopurified polyclonal anti-CS-6253 antibody (Biosynthesis Inc., Lewisville, TX). The anti-CS-6253 is a purified rabbit IgG polyclonal antibody specifically produced by Biosynthesis Inc. It is. Cross reactivity of this antibody was verified by Nondenaturing gradient gel electrophoresis (ND-PAGGE) 5% to 35% [24]. The anti-CS-6253 antibody recognizes only CS-6253 peptide in plasma; neither apo A-I nor apo E were detected by this antibody after separation by gradient gel electrophoresis respectively (Fig 1A, 1B and 1C). High molecular weight protein mixture (GE Healthcare, UK) was run as a standard on each gel.
Next, we investigated the nature of CS-6253-containing particles released in the medium from stimulated ABCA1 cells. Cells were first incubated in 100 mm diameter dishes with either (0.96 μM) apo A-I or CS-6253 in 8 ml of DMEM for 45 min and 6 h at 37°C. These two time points were selected based on our previous work on HDL biogenesis. Lipid free apo A-I or CS-6253 incubated in cell free system media under same conditions were used as control for 2D-PAGGE analysis. Apo A-I or CS-6253-containing particles were separated and analyzed by 2D-PAGGE. […] Both the charge and size of these nascent particles were stable over a 6h incubation period.
Fig 5 Time course ability of CS-6253 to generate nHDL-mimetic like particles. (A and B): nHDL-CS-6253 and nHDL-apo A-I released to the medium at specific time points (45 min and 6 h) from BHK cells expressing ABCA1 were analyzed by 2D-PAGGE. […] Molecular markers are indicated.

ABCA1 = ABCA1 (Homo sapiens, UniProt O95477); assay: ABCA1-mediated cholesterol efflux from BHK-ABCA1 cells after pre-incubation of acceptor in human plasma; format: cell-based; design: expressed in transfected cells; host or cells: BHK cells, stably transfected, induced with 10 nM mifepristone (gift of J. F. Oram)
Experimental: (§1) We investigated cholesterol efflux from BHK cells after adding lipid free CS-6253 to media cell culture or to human EDTA-plasma which had been stored at -80°C. BHK overexpressing human ABCA1 were labeled with 2 μCi/ml ^3H-free cholesterol (Perkin Elmer, Norwalk, Connecticut) for 24 h. Afterward, BHK-ABCA1 were stimulated with 10 nmol/l mifepristone for 18–20 h (13). Cells were incubated with various doses of acceptor in media for 4 h at 37°C. Alternatively, plasma samples were first pre-incubated for 5 min at 37°C in plasma at mole ratios (10:1 or 1:1 relative to plasma apo A-I). To obtain the HDL fraction, apoB lipoproteins were precipitated from plasma by polyethylene glycol (PEG). Also, increased doses of lipid free CS-6253 and nHDL-CS-6253 were tested for cholesterol efflux after incubation with human plasma for optimum 1h at 37°C. ^3[H]-cholesterol loaded BHK cells expressing ABCA1 were incubated with 2.8% apoB depleted plasma samples [19] for 4 h for the efflux assays. Lipid free apo A-I and nHDL-apo A-I were used as control, nHDL-CS-6253 and nHDL-apo A-I were generated after incubation with BHK cells expressing ABCA1. Direct comparisons with peptide ATI-5261 are provided using identical protocols (12).
Fig 7 Dose dependent effects of pre-incubation of plasma with lipid free CS-6253, or nHDL-CS-6253 on ABCA1 cholesterol efflux. A. Increased doses of lipid free CS-6253 or apo A-I were added to normolipidemic plasma and incubated for 1h at 37°C. A volume of 2.8% of HDL fractions isolated by PEG was used for the measurements of cholesterol efflux from BHK cells expressing ABCA1 and mock cells. […] B. nHDL-CS-6253 and nHDL-apo A-I were generated as indicated above. nHDL particles were incubated in plasma for 1h at 37°C, and specific HDL fractions isolated by PEG were subjected to cholesterol efflux in ^3[H]-radiolabelled BHK cells. […] C. Mobilization of cholesterol efflux of increasing concentrations of peptide: plasma apo A-I molar ratios: (1:0) (closed circles), (1:10) (upright closed triangles), and (1:1) (closed squares). (C inset). The double reciprocal-plot was used to calculate the apparent appKm of the efflux activity in peptide: plasma with indicated ratios. Kinetics values are as follows, molar ratio of plasma apo A-I: CS-6253 (1:0); appKm (28±0.07 μM). Molar ratio of plasma apo A-I: CS-6253 (1:1); appKm (4.17±0.47 μM). Molar ratio of plasma apo A-I: CS-6253 (1:10); appKm (0.71±0.46 μM). D. Lipid free CS-6253 was incubated with normolipidemic plasma, using peptide: apo A-I mole ratio of (1:1) for 5 min at 37°C versus plasma alone. Isolated HDL fractions by PEG were separated by 2D-PAGGE and HDL subpopulations were detected by apo A-I Western blot. Molecular size markers are shown. In all experiments, efflux of ^3[H]cholesterol is shown as means ± SD of triplicate experiments.

BHK-mock cells = assay: Cholesterol efflux from BHK-mock cells to acceptor in human plasma; format: cell-based, hamster
Experimental: as §1, with “Direct comparisons with peptide ATI-5261 are provided using identical protocols (12).” left out
Fig 7 Dose dependent effects of pre-incubation of plasma with lipid free CS-6253, or nHDL-CS-6253 on ABCA1 cholesterol efflux. […] Isolated HDL fractions by PEG were separated by 2D-PAGGE and HDL subpopulations were detected by apo A-I Western blot. […]

Sequence of ABCA1 (O95477 whole entry): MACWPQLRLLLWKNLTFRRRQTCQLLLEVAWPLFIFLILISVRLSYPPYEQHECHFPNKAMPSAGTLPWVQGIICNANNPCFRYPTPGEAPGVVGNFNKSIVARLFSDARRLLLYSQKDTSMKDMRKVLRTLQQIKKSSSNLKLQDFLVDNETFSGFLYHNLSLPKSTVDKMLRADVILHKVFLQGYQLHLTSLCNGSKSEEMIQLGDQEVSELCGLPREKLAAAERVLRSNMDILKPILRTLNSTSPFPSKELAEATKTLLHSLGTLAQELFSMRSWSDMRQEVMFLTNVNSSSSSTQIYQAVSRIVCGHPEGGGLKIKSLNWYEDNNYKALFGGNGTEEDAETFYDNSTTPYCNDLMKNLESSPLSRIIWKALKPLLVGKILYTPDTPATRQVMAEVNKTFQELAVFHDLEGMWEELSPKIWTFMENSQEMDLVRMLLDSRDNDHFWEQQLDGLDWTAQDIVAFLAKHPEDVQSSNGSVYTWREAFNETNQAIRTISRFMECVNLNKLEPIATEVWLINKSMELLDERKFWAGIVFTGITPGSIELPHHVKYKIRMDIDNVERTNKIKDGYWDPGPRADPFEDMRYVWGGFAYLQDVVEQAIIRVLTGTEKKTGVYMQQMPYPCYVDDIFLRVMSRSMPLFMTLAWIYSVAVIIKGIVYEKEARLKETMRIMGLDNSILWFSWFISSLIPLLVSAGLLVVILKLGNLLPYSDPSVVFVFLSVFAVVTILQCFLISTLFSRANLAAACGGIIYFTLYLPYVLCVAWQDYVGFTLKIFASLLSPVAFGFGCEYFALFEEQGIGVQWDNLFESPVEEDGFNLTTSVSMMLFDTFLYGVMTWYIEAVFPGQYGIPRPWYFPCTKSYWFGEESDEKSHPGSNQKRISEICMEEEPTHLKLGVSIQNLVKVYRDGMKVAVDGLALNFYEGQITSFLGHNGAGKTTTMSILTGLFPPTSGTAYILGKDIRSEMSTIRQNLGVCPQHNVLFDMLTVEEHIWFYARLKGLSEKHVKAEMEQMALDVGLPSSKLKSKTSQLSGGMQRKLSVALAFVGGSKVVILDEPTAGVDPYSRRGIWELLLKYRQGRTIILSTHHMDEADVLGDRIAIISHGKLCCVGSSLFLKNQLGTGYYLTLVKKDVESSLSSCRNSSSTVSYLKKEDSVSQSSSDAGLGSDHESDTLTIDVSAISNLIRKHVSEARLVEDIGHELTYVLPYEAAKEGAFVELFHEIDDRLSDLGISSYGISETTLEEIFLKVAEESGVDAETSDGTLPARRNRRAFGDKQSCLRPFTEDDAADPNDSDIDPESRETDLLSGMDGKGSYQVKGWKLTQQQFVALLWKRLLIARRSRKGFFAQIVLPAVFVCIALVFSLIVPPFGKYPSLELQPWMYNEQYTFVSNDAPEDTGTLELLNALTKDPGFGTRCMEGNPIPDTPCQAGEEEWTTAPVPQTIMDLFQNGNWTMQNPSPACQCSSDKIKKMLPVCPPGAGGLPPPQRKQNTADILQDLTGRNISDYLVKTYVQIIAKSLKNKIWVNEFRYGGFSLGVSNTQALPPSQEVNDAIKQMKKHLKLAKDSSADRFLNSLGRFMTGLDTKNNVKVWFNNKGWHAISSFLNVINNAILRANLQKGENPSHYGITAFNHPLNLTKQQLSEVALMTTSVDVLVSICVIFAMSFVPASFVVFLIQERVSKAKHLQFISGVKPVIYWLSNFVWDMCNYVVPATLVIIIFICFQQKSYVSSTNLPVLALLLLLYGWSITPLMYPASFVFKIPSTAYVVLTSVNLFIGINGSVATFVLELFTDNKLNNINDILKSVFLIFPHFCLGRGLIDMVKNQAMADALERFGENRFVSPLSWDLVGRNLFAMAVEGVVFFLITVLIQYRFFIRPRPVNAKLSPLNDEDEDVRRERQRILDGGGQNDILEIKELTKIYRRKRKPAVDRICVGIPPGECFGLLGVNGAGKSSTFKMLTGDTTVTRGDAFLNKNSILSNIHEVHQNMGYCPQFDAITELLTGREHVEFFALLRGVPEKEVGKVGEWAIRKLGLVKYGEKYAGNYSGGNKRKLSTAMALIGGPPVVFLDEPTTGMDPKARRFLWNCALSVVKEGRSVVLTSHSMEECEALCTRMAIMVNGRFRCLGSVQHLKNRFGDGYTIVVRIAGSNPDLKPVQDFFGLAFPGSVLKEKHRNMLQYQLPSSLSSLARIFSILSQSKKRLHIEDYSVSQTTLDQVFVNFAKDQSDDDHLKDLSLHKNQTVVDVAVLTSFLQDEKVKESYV

apolipoprotein A-I [apo A-I]
electrophoretic mobility of released particles ([1]; 45 min or 6 h, BHK-ABCA1): α-electrophoretic mobility
electrophoretic mobility, incubated without cells ([1]; cell free media): pre-β electrophoretic mobility
molecular diameter, incubated without cells ([1]; lipid free, cell free media, pre-β mobility): 7.1 nm
Km (ABCA1; acceptor in human plasma 1 h 37°C, 2.8% HDL fraction, 4 h, BHK-ABCA1, Fig 7A/7B, read-out: Km, cholesterol efflux, plasma (Fig 7)): 0.03 ± 0.008 µM
Vmax, cholesterol efflux, plasma (Fig 7) (ABCA1; acceptor in human plasma 1 h 37°C, 2.8% HDL fraction, BHK-ABCA1, Fig 7A/7B): 9.26±0.29 % efflux/4h
Vmax, cholesterol efflux, plasma (Table 1) (ABCA1; efflux condition plasma, 4 h, BHK-ABCA1, Table 1, mean ± SD): 8.81±0.33 % efflux/4h
Km (ABCA1; efflux condition plasma, 4 h, BHK-ABCA1, Table 1, mean ± SD, read-out: Km, cholesterol efflux, plasma (Table 1)): 0.02 ± 0.0091 µM
appKm, HDL specific cholesterol efflux, plasma apo A-I alone (ABCA1; no peptide, 5 min, 37°C, efflux 4 h, Lineweaver-Burk, listed as plasma apo A-I): 28 ± 0.072 µM and 28 ± 0.07 µM
maximum efflux capacity, BHK-mock (BHK-mock cells; acceptor in human plasma): similar
Vmax, cholesterol efflux, BHK-mock (BHK-mock cells; acceptor in human plasma 1 h, 37°C): 0.30±0.15 % efflux/6h
